Results on 3 molecules are retold here after PMC10758017.

The labels stand for the following.
T1: TGFβRI/TGFβRII receptor complex (mouse (endogenous in MFB-F11)) (UniProt Q64729)
T1 sequence 1: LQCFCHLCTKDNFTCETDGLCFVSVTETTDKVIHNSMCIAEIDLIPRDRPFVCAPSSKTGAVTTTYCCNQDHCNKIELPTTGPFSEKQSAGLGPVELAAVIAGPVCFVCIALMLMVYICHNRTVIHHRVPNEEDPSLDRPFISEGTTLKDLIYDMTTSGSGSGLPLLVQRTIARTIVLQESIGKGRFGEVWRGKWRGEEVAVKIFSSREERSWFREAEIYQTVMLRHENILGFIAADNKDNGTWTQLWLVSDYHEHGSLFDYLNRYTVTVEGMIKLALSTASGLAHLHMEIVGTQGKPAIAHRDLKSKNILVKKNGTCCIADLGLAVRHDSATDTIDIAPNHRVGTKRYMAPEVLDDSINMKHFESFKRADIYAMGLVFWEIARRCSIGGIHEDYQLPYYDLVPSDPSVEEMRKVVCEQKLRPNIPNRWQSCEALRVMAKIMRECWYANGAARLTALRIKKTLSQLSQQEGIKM
T1 sequence 2: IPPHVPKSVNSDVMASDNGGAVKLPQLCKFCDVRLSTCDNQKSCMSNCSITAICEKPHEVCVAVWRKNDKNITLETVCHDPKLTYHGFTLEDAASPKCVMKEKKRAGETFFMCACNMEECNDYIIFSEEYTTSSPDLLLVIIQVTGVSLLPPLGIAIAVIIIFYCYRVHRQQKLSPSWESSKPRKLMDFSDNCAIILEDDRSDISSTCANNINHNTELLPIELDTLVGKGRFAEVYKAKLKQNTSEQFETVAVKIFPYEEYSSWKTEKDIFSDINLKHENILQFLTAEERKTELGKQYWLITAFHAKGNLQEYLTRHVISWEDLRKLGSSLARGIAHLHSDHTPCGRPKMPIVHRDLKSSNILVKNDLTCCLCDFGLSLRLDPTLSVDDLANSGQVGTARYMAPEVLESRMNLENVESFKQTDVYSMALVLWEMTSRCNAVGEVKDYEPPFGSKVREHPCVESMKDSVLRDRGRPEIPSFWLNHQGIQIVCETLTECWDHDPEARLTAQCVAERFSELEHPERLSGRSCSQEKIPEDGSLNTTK

One test deals with T1, TGFβRI/TGFβRII receptor complex (mouse (endogenous in MFB-F11)).
LDAAYCFRN [peptide inhibitor 1.2 …]: the Smad2 mRNA, ddCt (qRT-PCR), IP at 50 μM against the reference inhibitor SB-525334 at 50 nM is -12.2.
On the same count and under the same terms, in the case of DAAYCFRNV [peptide inhibitor 1.3 …] it was -10.5.
AYCFRNVQD [peptide inhibitor 1.5 …] had a Smad2 mRNA, ddCt (qRT-PCR), IP at 50 μM against the reference inhibitor SB-525334 at 50 nM of -2.4.

The next test shares this target. This is another data set of the same source.
The molecule LDAAYCFRN [peptide inhibitor 1.2 …] yielded a Jun N-terminal kinase (JNK1) mRNA, ddCt (qRT-PCR), IP at 50 μM against the reference inhibitor SB-525334 at 50 nM of -15.3.
Molecule DAAYCFRNV [peptide inhibitor 1.3 …] showed a Jun N-terminal kinase (JNK1) mRNA, ddCt (qRT-PCR), IP at 50 μM against the reference inhibitor SB-525334 at 50 nM of -13.4.
Still for that read-out and setting: for AYCFRNVQD [peptide inhibitor 1.5 …] the value was -0.1.

For another test the target is unchanged. This is another data set of the same source.
Molecule LDAAYCFRN [peptide inhibitor 1.2 …] showed a Smad3 mRNA, ddCt (qRT-PCR), IP at 50 μM against the reference inhibitor SB-525334 at 50 nM of -11.9.
In turn, DAAYCFRNV [peptide inhibitor 1.3 …] came in with a Smad3 mRNA, ddCt (qRT-PCR), IP at 50 μM against the reference inhibitor SB-525334 at 50 nM of -9.5.
In the case of AYCFRNVQD [peptide inhibitor 1.5 …], the Smad3 mRNA, ddCt (qRT-PCR), IP at 50 μM against the reference inhibitor SB-525334 at 50 nM stood at 0.2.

For a further test the target is unchanged. This is another data set of the same source.
In the case of LDAAYCFRN [peptide inhibitor 1.2 …], the Smad4 mRNA, ddCt (qRT-PCR), IP at 50 μM against the reference inhibitor SB-525334 at 50 nM is -11.3.
DAAYCFRNV [peptide inhibitor 1.3 …] registered a Smad4 mRNA, ddCt (qRT-PCR), IP at 50 μM against the reference inhibitor SB-525334 at 50 nM of -9.3.
On to AYCFRNVQD [peptide inhibitor 1.5 …], for which the Smad4 mRNA, ddCt (qRT-PCR), IP at 50 μM against the reference inhibitor SB-525334 at 50 nM came to 0.9.
